In patent publication US20220315554A1, “COMPOUNDS COMPRISING A […] LIGAND AND USE THEREOF” (priority 2019, published 2022) one finds % Inhibition of Specific Binding data, which are given here for two molecules.

Bridge positions count the residues as written; N and C are the ends. * marks the point of attachment. tMeBn(DOTA-AET) = Cys-Cys bridge (thioethers) carrying DOTA-AET; tMeBn(DOTA-PP) = Cys-Cys bridge (thioethers) carrying DOTA-PP; Hexanoyl = CCCCCC(=O)*

Holding throughout (assay): radioligand displacement, 10 uM compound
What all share (conditions): remark: other sources report otherwise

Experiment [1] has as its target T1, AR (h) (human (printed (h))), P10275.
T1 chain: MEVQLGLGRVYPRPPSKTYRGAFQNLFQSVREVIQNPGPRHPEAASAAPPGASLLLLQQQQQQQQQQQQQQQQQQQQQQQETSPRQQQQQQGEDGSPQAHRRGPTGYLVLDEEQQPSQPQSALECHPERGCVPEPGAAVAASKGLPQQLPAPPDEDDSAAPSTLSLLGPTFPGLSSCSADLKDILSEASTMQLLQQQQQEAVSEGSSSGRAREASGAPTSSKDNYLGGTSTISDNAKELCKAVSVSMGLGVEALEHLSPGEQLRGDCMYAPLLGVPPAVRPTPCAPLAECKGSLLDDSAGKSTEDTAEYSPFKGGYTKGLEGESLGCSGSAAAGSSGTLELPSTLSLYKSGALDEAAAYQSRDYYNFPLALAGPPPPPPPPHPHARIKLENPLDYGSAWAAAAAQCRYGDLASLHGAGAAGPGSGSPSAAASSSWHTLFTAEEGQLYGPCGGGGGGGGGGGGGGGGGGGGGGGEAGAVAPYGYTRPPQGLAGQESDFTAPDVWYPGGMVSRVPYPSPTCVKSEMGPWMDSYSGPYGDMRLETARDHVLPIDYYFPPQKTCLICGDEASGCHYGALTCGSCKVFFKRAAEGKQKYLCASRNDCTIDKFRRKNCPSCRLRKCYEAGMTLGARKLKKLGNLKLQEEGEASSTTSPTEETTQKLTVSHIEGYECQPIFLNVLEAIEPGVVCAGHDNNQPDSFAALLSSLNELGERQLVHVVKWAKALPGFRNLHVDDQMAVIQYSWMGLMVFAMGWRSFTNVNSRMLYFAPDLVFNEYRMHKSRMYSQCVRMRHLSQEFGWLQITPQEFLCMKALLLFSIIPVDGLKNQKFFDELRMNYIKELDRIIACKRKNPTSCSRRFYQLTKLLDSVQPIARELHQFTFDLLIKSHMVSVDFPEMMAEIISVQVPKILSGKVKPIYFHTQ

Experiment [2] addresses T2, M1 (h) (human (printed (h))), P11229.
T2 chain: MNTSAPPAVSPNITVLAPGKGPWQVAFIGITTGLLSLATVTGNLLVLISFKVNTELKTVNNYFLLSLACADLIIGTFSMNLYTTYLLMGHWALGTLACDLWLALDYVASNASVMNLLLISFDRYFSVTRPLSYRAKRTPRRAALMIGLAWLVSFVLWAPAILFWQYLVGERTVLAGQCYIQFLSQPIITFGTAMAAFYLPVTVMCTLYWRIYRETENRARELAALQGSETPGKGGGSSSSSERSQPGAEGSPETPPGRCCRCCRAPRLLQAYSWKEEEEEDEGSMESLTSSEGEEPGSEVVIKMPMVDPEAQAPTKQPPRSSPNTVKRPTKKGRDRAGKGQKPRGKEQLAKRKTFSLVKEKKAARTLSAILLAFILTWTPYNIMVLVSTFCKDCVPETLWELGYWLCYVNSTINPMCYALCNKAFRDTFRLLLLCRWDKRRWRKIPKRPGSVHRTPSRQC

In experiment [3] the target is T3, alpha 2A (h) (human (printed (h))), P08913.
T3 chain: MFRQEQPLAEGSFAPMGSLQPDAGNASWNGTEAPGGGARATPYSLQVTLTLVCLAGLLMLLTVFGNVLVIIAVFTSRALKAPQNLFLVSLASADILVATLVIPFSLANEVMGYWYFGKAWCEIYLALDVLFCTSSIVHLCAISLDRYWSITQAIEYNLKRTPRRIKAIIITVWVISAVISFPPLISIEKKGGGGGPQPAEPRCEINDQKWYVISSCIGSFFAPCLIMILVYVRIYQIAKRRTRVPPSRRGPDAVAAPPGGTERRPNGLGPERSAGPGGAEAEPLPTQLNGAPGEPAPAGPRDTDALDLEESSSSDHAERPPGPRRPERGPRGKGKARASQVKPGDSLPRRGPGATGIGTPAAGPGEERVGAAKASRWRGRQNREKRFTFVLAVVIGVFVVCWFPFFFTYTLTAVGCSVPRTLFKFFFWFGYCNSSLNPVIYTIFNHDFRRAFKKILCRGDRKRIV

The target in experiment [4] is beta 1 (h) (human (printed (h))), P08588.
The target of experiment [5] is T4, dopamine transporter (h) (human (printed (h))), Q01959.
T4 chain: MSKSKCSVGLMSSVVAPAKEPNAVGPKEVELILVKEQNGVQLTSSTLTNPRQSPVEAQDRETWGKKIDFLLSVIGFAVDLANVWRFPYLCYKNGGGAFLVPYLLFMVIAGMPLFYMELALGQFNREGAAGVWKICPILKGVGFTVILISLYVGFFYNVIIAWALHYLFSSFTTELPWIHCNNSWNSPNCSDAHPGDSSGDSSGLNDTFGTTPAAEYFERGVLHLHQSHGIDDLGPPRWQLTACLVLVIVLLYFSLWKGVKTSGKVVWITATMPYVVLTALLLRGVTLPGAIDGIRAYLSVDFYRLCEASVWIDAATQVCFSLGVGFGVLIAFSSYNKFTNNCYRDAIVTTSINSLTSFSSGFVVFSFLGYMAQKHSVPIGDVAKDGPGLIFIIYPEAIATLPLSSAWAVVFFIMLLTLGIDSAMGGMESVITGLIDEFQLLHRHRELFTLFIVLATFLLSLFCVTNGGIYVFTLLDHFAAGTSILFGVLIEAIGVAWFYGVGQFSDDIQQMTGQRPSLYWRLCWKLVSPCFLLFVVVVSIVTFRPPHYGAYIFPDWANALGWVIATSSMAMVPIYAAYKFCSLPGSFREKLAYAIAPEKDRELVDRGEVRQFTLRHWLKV

B1: Hex-[Cys(tMeBn(DOTA-AET))-Pro-Pro-Thr-Gln-Phe-Cys]-OH (3BP-3554) (peptide)
peptide: Hexanoyl-CPPTQFC-OH
modifications: linker 1-7 via tMeBn(DOTA-AET)
With B1, the % Inhibition of Specific Binding in experiment [1] was -5%; in experiment [2], 8%; in experiment [3] it was 2%; in experiment [4], -13%; in experiment [5], 7%.

B2: Hex-[Cys(tMeBn(DOTA-PP))-Pro-Pro-Thr-Gln-Phe-Cys]-Asp-NH2 (3BP-3407) (peptide)
peptide: Hexanoyl-CPPTQFCD-NH2
modifications: linker 1-7 via tMeBn(DOTA-PP)
On to B2, for which the % Inhibition of Specific Binding in experiment [1] was 3%; in experiment [2] it was 6%; in experiment [3], -9%; in experiment [4], 4%; in experiment [5], 12%.
